# Data published in article PMC2504287 (Nucleic Acids Research, 2008).
# Changes are numbered by the printed parent chain. Numbers in names are those of the source.
# T1: C.Esp1396I controller protein (UniProt Q8GGH0 1-79)
# T1 sequence: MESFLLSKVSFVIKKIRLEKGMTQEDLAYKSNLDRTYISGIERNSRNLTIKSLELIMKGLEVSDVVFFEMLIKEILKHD
# B1: C.Esp1396I controller protein (wild type) (natural protein)
# chain: GSHMESFLLSKVSFVIKKIRLEKGMTQEDLAYKSNLDRTYISGIERNSRNLTIKSLELIMKGLEVSDVVFFEMLIKEILKHD
# B2: C.Esp1396I E25A mutant (natural protein)
# chain: B1 chain with E28A
# B3: OL (OR mutated) (dsDNA)
# DNA 1: ATGTGACTTATAGTCCGTCTAGCCTAGCCTAGCCT
# DNA 2: AGGCTAGGCTAGGCTAGACGGACTATAAGTCACAT
# Assays:
# [1] = biological target: the molecule itself
# native gel or EMSA = biological target: the molecule itself; assay: native gel or EMSA
# [2] = biological target: T1, C.Esp1396I controller protein; assay: EMSA
binder,measurement,setting,value
B1,Kd,[1],~600 nM
B2,binding result,native gel or EMSA,binds
B3,binding result,[2],binds
